# Measured values published in the supplement of paper PMC7877785.
# ± gives the uncertainty stated by the source.
# Assay: self-splicing fitness, log relative to wild type (ln ratio); higher = more splicing; Tetrahymena group I intron in knt gene, E. coli kanamycin selection, DiMSum; sequences stand for … in CUCUCU…GGAGGGAAAAGUUAUCAGGCAUGCACCUGGUAGCUAGUCUUUAAACCAAUAGAUUGCAUCGGUUUAAAAGGCAAGACCGUCAAAUUGCGGGAAAGGGGUCAACAGCCGUUCAGUACCAAGUCUCAGGGGAAACUUUGAGAUGGCCUUGCAAAGGGUAUGGUAAUAAGCUGACGGACAUGGUCCUAACCACGCAGCCAAGUCCUAAGUCAACAGAUCUUCUGUUGAUAUGGAUGCAGUUCACAGACUAAAUGUCGGUCGGGGAAGAUGUAUUCUUCUCAUAAGAUAUAGUCGGACCUCUCCUUAAUGGGAGCUAGCGGAUGAAGUGAUGCAACACUGGAGCCGCUGGGAACUAAUUUGUAUGCGAAAGUAUAUUGAUUAGUUUUGGAGUACUCGUGGUCG
# How it was run: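 Six replicate transformations of E. coli BL21(DE3) with a pET-22b(+) library were grown overnight at 37°C or 30°C. The library randomised all eight P1ex-region intron nucleotides, the intron lying in the knt kanamycin-resistance gene, and plates were LB agar with or without 25 μg/mL kanamycin plus 100 μg/mL carbenicillin, 50 μM IPTG and 0.2% rhamnose. Pooled colonies were amplicon-sequenced on an Illumina HiSeq 2500, and fitness is the DiMSum error-weighted combination of wild-type-normalised replicate fold changes, kanamycin versus none.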
Sequence,self-splicing fitness (ln) (30 °C),self-splicing fitness (ln) (37 °C)
AUUUAGCAAUAUUACGGAUA,-2.18 ± 0.27,-1.53 ± 0.27
AUUUAGCAAUAUUACGGCCA,-0.814 ± 0.21,-0.925 ± 0.23
AUUUAGCAAUAUUACGGGGC,-3.54 ± 0.41,–
AUUUAGCAAUAUUACGUAAC,-2.52 ± 0.18,-2.58 ± 0.2
AUUUAGCAAUAUUACGUAAG,-2.8 ± 0.18,0.197 ± 0.18
AUUUAGCAAUAUUACGUAGA,-2.08 ± 0.15,-2.48 ± 0.23
AUUUAGCAAUAUUACGUCCA,-0.944 ± 0.15,-0.558 ± 0.27
AUUUAGCAAUAUUACGUCCG,-1.76 ± 0.18,-0.728 ± 0.22
AUUUAGCAAUAUUACGUCUG,-1.73 ± 0.11,-1.15 ± 0.11
AUUUAGCAAUAUUACGUGCA,-1.05 ± 0.11,-0.306 ± 0.16
AUUUAGCAAUAUUACGUUGC,-3.26 ± 0.41,–
CAAAAGCAAUAUUACGAACG,0.409 ± 0.072,0.483 ± 0.095
CAAAAGCAAUAUUACGAAGC,-4.63 ± 0.36,-2.27 ± 0.21
CAAAAGCAAUAUUACGACAU,-2.345 ± 0.013,-1.34 ± 0.033
CAAAAGCAAUAUUACGACCU,-1.79 ± 0.095,-0.569 ± 0.084
CAAAAGCAAUAUUACGACUG,-0.738 ± 0.068,0.168 ± 0.099
CAAAAGCAAUAUUACGCAAG,-1.52 ± 0.12,0.0344 ± 0.12
CAAAAGCAAUAUUACGCAGU,-4.31 ± 0.24,-3.64 ± 0.27
CAAAAGCAAUAUUACGCCAU,-3.4 ± 0.2,-2.61 ± 0.23
CAAAAGCAAUAUUACGCCUU,-3.67 ± 0.17,-0.986 ± 0.12
CAAAAGCAAUAUUACGCGCC,-2.04 ± 0.17,-0.789 ± 0.19
CAAAAGCAAUAUUACGCGGA,-3.43 ± 0.25,-2.08 ± 0.17
CAAAAGCAAUAUUACGCGGC,-2.85 ± 0.21,-2.21 ± 0.28
CAAAAGCAAUAUUACGCUUC,-3.84 ± 0.33,-1.99 ± 0.24
CAAAAGCAAUAUUACGGCCC,-2.01 ± 0.31,-1.06 ± 0.3

Sequence,self-splicing fitness (ln) (30 °C),self-splicing fitness (ln) (37 °C)
CAAAAGCAAUAUUACGGCUU,-3.44 ± 0.11,-2.39 ± 0.11
CAAAAGCAAUAUUACGGUAU,-3.42 ± 0.15,-2.67 ± 0.15
CAAAAGCAAUAUUACGUAAA,-1.47 ± 0.092,-1.32 ± 0.11
CAAAAGCAAUAUUACGUAUU,-4.13 ± 0.18,-2.78 ± 0.15
CAAAAGCAAUAUUACGUGUU,-3.61 ± 0.13,-2.37 ± 0.13
CAAAAGCAAUAUUACGUUCA,-1.67 ± 0.11,-0.976 ± 0.1
CAAAAGCAAUAUUACGUUGU,-3.3 ± 0.11,-2.4 ± 0.14
CAAAAGCAAUAUUACGUUUG,-3.08 ± 0.14,-2.55 ± 0.18
CAACAGCAAUAUUACGAAUC,-3.47 ± 0.13,-2.41 ± 0.14
CAACAGCAAUAUUACGACCA,-1.66 ± 0.099,-0.585 ± 0.097
CAACAGCAAUAUUACGACGU,-0.776 ± 0.042,-0.12 ± 0.054
CAACAGCAAUAUUACGAGCC,-3.76 ± 0.46,-1.95 ± 0.29
CAACAGCAAUAUUACGAUAA,-2.08 ± 0.1,-1.67 ± 0.11
CAACAGCAAUAUUACGAUCU,-2.02 ± 0.13,-0.986 ± 0.12
CAACAGCAAUAUUACGAUGG,-0.426 ± 0.056,0.257 ± 0.075
CAACAGCAAUAUUACGGCCA,-2.55 ± 0.15,-1.59 ± 0.14
CAACAGCAAUAUUACGGCUC,-1.38 ± 0.078,-0.333 ± 0.098
CAACAGCAAUAUUACGGGGA,-2.24 ± 0.093,-2.14 ± 0.11
CAACAGCAAUAUUACGGGGU,-4.57 ± 0.23,-2.79 ± 0.15
CAACAGCAAUAUUACGGUAG,-0.633 ± 0.059,-0.746 ± 0.068
CAACAGCAAUAUUACGUCGC,-2.75 ± 0.17,-2.07 ± 0.18
CAACAGCAAUAUUACGUGCA,-2.72 ± 0.11,-1.57 ± 0.092
CAACAGCAAUAUUACGUUGG,-2.86 ± 0.096,-1.5 ± 0.095
CAACAGCAAUAUUACGUUUG,-3.3 ± 0.077,-2.11 ± 0.094
CAACAGCAAUAUUACGUUUU,-3.57 ± 0.11,-2.19 ± 0.11

Sequence,self-splicing fitness (ln) (30 °C),self-splicing fitness (ln) (37 °C)
CAAGAGCAAUAUUACGAAUC,-3.46 ± 0.41,-1.26 ± 0.38
CAAGAGCAAUAUUACGAGCC,-4.42 ± 0.34,-2.31 ± 0.32
CAAGAGCAAUAUUACGAUAG,-1.53 ± 0.11,-0.239 ± 0.13
CAAGAGCAAUAUUACGAUUG,-2.26 ± 0.13,-1.86 ± 0.15
CAAGAGCAAUAUUACGCAUA,-2.71 ± 0.31,-2.3 ± 0.37
CAAGAGCAAUAUUACGCGUU,-3.61 ± 0.22,-3.05 ± 0.25
CAAGAGCAAUAUUACGCUAC,-2.4 ± 0.26,-1.66 ± 0.38
CAAGAGCAAUAUUACGCUCA,-2.63 ± 0.17,-1.08 ± 0.2
CAAGAGCAAUAUUACGCUCG,-2.16 ± 0.44,-1.26 ± 0.41
CAAGAGCAAUAUUACGGAAG,-1.75 ± 0.13,-1.31 ± 0.19
CAAGAGCAAUAUUACGGAUC,-3.07 ± 0.18,-3.27 ± 0.27
CAAGAGCAAUAUUACGGGGG,-3.3 ± 0.21,-2.62 ± 0.2
CAAGAGCAAUAUUACGGUCU,-2.35 ± 0.16,-1.97 ± 0.22
CAAGAGCAAUAUUACGUAAC,–,-2.94 ± 0.43
CAAGAGCAAUAUUACGUAUA,-4.95 ± 0.3,-1.92 ± 0.15
CAAGAGCAAUAUUACGUCAG,-3.25 ± 0.16,-0.429 ± 0.11
CAAGAGCAAUAUUACGUUCA,-2.46 ± 0.17,-2.09 ± 0.19
CAAGAGCAAUAUUACGUUGC,-3.28 ± 0.2,-2.38 ± 0.23
CAAGAGCAAUAUUACGUUGU,-5.35 ± 0.45,-2.26 ± 0.22
CAAGAGCAAUAUUACGUUUG,-2.75 ± 0.21,-2.37 ± 0.24
CAAUAGCAAUAUUACGAAGG,-1.86 ± 0.095,-0.211 ± 0.13
CAAUAGCAAUAUUACGAAUC,-2.66 ± 0.38,-0.0469 ± 0.27
CAAUAGCAAUAUUACGACCU,-3.2 ± 0.24,-0.203 ± 0.2
CAAUAGCAAUAUUACGACGC,-2.73 ± 0.19,-0.616 ± 0.17
CAAUAGCAAUAUUACGAGAC,-4.17 ± 0.36,-2.1 ± 0.27

Sequence,self-splicing fitness (ln) (30 °C),self-splicing fitness (ln) (37 °C)
CAAUAGCAAUAUUACGCACU,-2.14 ± 0.12,-1.82 ± 0.17
CAAUAGCAAUAUUACGCUAA,-3.58 ± 0.43,-2.05 ± 0.2
CAAUAGCAAUAUUACGGCUG,-0.286 ± 0.084,-0.379 ± 0.098
CAAUAGCAAUAUUACGGGAA,-3.21 ± 0.2,-1.94 ± 0.15
CAAUAGCAAUAUUACGGUAC,-3.25 ± 0.19,-2.08 ± 0.18
CAAUAGCAAUAUUACGGUGG,-0.89 ± 0.081,-0.133 ± 0.1
CAAUAGCAAUAUUACGUAGC,–,-2.05 ± 0.3
CAAUAGCAAUAUUACGUAUA,-3.6 ± 0.22,-2.58 ± 0.19
CAAUAGCAAUAUUACGUCGA,-2.82 ± 0.21,-2.96 ± 0.28
CAAUAGCAAUAUUACGUCUU,-3.63 ± 0.14,-2.09 ± 0.13
CAAUAGCAAUAUUACGUUAU,-4.87 ± 0.34,-1.57 ± 0.18
CAAUAGCAAUAUUACGUUCU,-4.4 ± 0.43,–
CAAUAGCAAUAUUACGUUUA,-3.6 ± 0.19,-2.13 ± 0.14
CACAAGCAAUAUUACGACGG,-0.279 ± 0.071,0.557 ± 0.083
CACAAGCAAUAUUACGAUCU,-2.56 ± 0.09,-2.85 ± 0.13
CACAAGCAAUAUUACGAUUC,-3.55 ± 0.16,-0.651 ± 0.11
CACAAGCAAUAUUACGCACA,-1.08 ± 0.087,-0.518 ± 0.098
CACAAGCAAUAUUACGCAGC,-3.48 ± 0.29,–
CACAAGCAAUAUUACGCAUG,-3.79 ± 0.18,-2.52 ± 0.13
CACAAGCAAUAUUACGCCGU,-2.15 ± 0.23,-2.36 ± 0.26
CACAAGCAAUAUUACGCCUU,-3.72 ± 0.18,-1.34 ± 0.14
CACAAGCAAUAUUACGCGAU,-3.57 ± 0.15,-3.18 ± 0.19
